According to the NTF2 design screens of Basanta et al. (2020):

Experiment: protease stability score; higher = more stable; yeast display proteolysis, trypsin and chymotrypsin;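 note: relative to predicted unfolded state with 0 unfolded-like and 1 meaning tenfold more protease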

Sequence | protease stability score
SDVDEKMETFLTLLFELIYTGDEEVIEKLFDPNVQLDVNGQIYHGMENVIEFVHQVKRHIRWKTVQIRHYRTQGEWAYSQVEVTGTVNGQSHRFEIHIDIWVINGKLKHIKKDIE | 2.01
SDVEEMLHRIARLIVHNLFTGDWEDLVRMMDPHARYIVNGKESVGWRRVTEMLRRHHEELRIREIRIRHIEVYNGKAELHLEVNEEVNGREVSLDTRLHVLTINGVIRSIHIEVE | 0.719
SDVLESTKSFLRFFVHAMITGNEEELSRNLDPNVRLLFNGVNYHGMEELVRLLIELGIKIHEWHTHDLKFQGEKLYYLGRRDGEVNGRRSEEEVEFIIFKFNGRWFLHEMRIH | 0.627
SDWDEWTKRMLDILIEALETGDEEVLSRLIDPNMRLDINGQEFHGREVILRHLITEIQRADHVEFRIEDRDLIDGRVYMEVEKIIHINGVEFRHHVLIIIEKVDGRWYINSVHVR | 2.46
SDWDKITKEMAELILTAEETGDFKTLWRLMDPNVKLNIGDKTHHGREEYLKWMHEHLKKVPNLTLKLRDVHVQGDKVHLRVEVEIGDKTIDSEIHLEIINGRIEHLRIIDL | 0.957
SDWEDLVRMAFHHFIHSMRTGDEDIIHQLLDPEVKINVGDKVIHGREQAFDYIHTLVNRADHIRFRLDHLDVQGDFIEIRTTVDLTYGDKHHRMEVTFFSRKVDGVWLIERVQIK | 1.27
SDWNEFLIEVAELLLRWLSTGDEESFHRYVDPRVRLEFNGKELHGREELARFLRHLRWILDHLEFTSREDQGEKFRVEGKSHGHLFFENHFERHDLKNDLNLILVNGRIKEISLRLE | 1.42
SDYEKEVLDYAHTFLHAFLTGNEFILLKLLDPHVRIEIHFDGVDFLRHGRETFSKRAVDHIREWRVEIRLHDLHVVDGVVHLNTRLHVDYGDKHIHITQHITLFVINGRMKTVHIRHE | 1.26
SDYERLFTIAVQLVIDVIQTGNFRELERLLDPNVRVDINGQEFVGREELVHWMHKVIRRADHLEITLRDVELQGDKLVLDMELVERYDGKEYRTRIRVFAHKINGQWYIRTFEVR | 1.51
SDYTEVAHEIMDEWSKAILTGDEDTVEELLDPNVRVDINGQEIHGWETIFKKLRRFVDELGIDHVHVNTKRVKLIGNYIHVDGELRYHQGDFHIVRKVRLLIVKINGQWLIREINLK | 2.42
SEAEEFARRVIELWIRSILTGNPDMSEKLADPNYKVHFNGVNIVGMEEFYRHLEEWRIHIDDFRIRDVRVQGDKMINDTEERITIKYGDKEIHLDVRLEIIIRKIDGRWHMHSIILH | 2.2
SEAEERAEKFIELLTKALLTGDWRMISRMFDPHVRIIIGDKESHGMESLRDTLEHLRFDHINTRIEHVQVQGDWVEIHIRVHMRITVDGKEFHVETQMHYVLIKIDGKWVVREIEIR | 2.44
SEAEESARKLTHDILRLFLTGDEDLISRYFDPNVRHHINGQEEHGMEKMVKMLNHMRFRDMHLRDVRIHIIDGVATAHVEGELHGEVNGVRRDIKSELIIITEKFNGRWRLSSISFIIE | 0.256
SEAEKRSEIILRLILHSLHTGDEHTLESLFDPNVRILIGDKELVGMEELSKLLRHIRIERVHIHLRDDRQQGDKADMDVELHRHGTFNGVRRDESSRIWIHAEKVDGRWVISEVIVH | 1.02
SEAERDAKELLELIVTTMRTGDEETLNRLMDPHTRLHVNGRDLIGRELMTEFLHEIRIEDSRTRDVRVFNGRLEVEGKLRGDWNGVEREVETRYIVEKVNGRWLLHSVTFE | 0.413
SEDAEYIKEFAELFFRWWITGDEEHLRSLADPHTRSDVNGRDIHGMELWSKMLLDHLTKIKNVRYTLREVRFFENHTELDMKVDINGKEMKFSIRVSLINGRLHSITVRLHSE | 1.35
SEDAKLTEELFREWLTIMLTGDWEQSLRRIDPHARLIIDGRHFHGREEFSKVVKELRFKDMIDRRIHVDENEVFVDVELRGVINGREVTIKTHILIVVIDGVIHSIEIRNR | 1.29
SEDDDHSEHMYRRILELWKTGNWRLFHELLDPNTRFEIGDKEFHGREEVVEYLRRDLEKFKNIRFHIRQHEVVGNKLHIDGEIIFNGKHEHVHIILLIVDGKIKEIRFESR | 2.72
SEDDDLAKDFVSLMLHEFRTGNEESMSKLVDPHVRLHIGDKTYVGRENVSRILKKELRDYGIDHMHIDHLRVQGDKVHIHTTYRQGDKEMETHFVILKVDGKWFMHEIEIR | 1.88
SEDDDLIREFFEDWVKSVLTGDEDTIAKLADPHTRHEYGDKEHHGRDLVVEMLTFLYKHIRFEDVRLRHFDIQGNKIILHGKVEGKIDGRHRTFDVTIEVIKVNGQWLWHTIVIR | 1.89
SEDDDSAREILRILTEAWYTGNEDELIRLMDPNARSLFDGVEFHGRELVRLWKERVDHTHSIKVKLHSMRIIGNKLEVDGRLEQEGEINGRRFLIVVEVHLIILKVNGRWRMHSVEVR | 1.68
SEDDEAVSHALHLLSEVLLTGDERTWKRLADPNVKLEFNGREFHGMEEWKRMLDHIRIDHVKIELERSDSIGDKMHTHGRLIVHTTINGVELDRITDVRFIIEKVDGRWKLTSLHIH | 1.29
SEDDEDLKFAWDHLLRSWLTGNFDFFKEMFDPHTRLEQGEKEHHGRNAFERYLRELGIDHIKNIHIEDVEIQGDKMRLHGRQHIFVNGREINLEVTYIILKINGQWHLHRVRIK | 0.846
SEDDEDNERWFERLLHSLHTGNEELTRKLMDPNVRVDFNGKDLHGMDHMVKLVRHLRNRVDHLHMLVHHSDNINGVAHNDVTLELRYGDKTERLRVRIVASKVDGRWILKSVEID | 1.28
SEDDEDVERAAKLMLHILRTGDERHLHEYLDPNVRSIVNGREFHGRESLLHVMTLQMRELGIDHINVRRVKYDEDEVHFFMNVNINGQHREVIFRAKKINGRWIFHEVELR | 1.7

Sequence | protease stability score
SEDDEEKEEYLRKELEAHRTGDWRLFRELIDPHTKIHINGVLFVGWKDATRFFKEIRVKDHKVHRVRNIDGRIEMDGELNIDIDGREDIMIVHIRAKKVNGRWIVDSVEFR | 1.19
SEDDEELEEAARRTLKIIRTGDEDLYTRLADPHDKMQIDGVETHGMEEISRWLKEHRDRFKGLKMIERRIRVTSIDGQVRVHIDTELRVDGVTQRVELNWIASKVDGRWRLERVEFIIR | 0.745
SEDDEEVRIALDIQRELFRTGDWRSIEEFLDPNVRVHVGDKEIHGMEELLRYYTHIMNHLGAKHWHVTEYTSIGDFVHIDGEFIQGDKTFHLKIHLLKFNGRWIIHSRIID | 1.22
SEDDEFIRFVSEIIEHILETGDEESLIKLADPNAQFIHIINGREIRYHGRHIFIEWWRRLGIDHLKIEDVRVEQQGDKMRTDFRVILRVGDKTIDSKLHFLIRKVDGKWHVESIKVEHR | 2.27
SEDDEFYKHAFNLMIRVLETGDEELFTKMADPNVRSEINGQDIHGREMLSHIVLEEVRRADHIEFRIDHFRVIGDKVEHDGTKILNVNGVNIELRFHLHSVKVNGKWILKSERVD | 0.869
SEDDEHLREFIEIRLHAIETGDWRRMEHLFDPNVRFEFNGVELHGMETVARRLSRIDHEWSEIRINRHRLFNGVLHLDTRLDLRVHVDGKEIRVEHTTRIVILKFNGRWLITEMTIE | 0.748
SEDDEHMKEIWRILQHSLETGDFHILSRMADPNAKFDIGDKEIVGMHLWIEELLRYKNRQIRVHYHEMRVYDGKIDSRERYDVKYGDKELTTELRVHARKIDGRWVLEDVRVH | 0.668
SEDDEHSRDAFEIFMRLIRTGDWHHLLNLLDPHVRIDFNGREHIGREEATRILVEWRIRNIRLRHYDMVNGRAHFHTESDVEFNGRRDKIEIHMVVLKIDGRWFIHSMIIH | 2.42
SEDDEIKKHVAERWLKRLETGDEKTLSKLLDPDVRLHINGRTLHGREEVVHELHKWYYELGVDHVILRHIDHVNGQLRLHNEIRFENRHTSEILVITKVDGQWIVKYIEIRDH | 1.53
SEDDEILERMLRELIHLIRTGDEDSIREMADPNVRLIINGKEFHGMEEYIKTWHRILERFDHLRHVELHDEHRFDGRVRIWGTLNHRIGDKHTRFTVHIVALKFNGRWILKSEEIT | 1.36
SEDDEITHYILQLWLDLVQTGDEEKLTDLHDPHVRNRINGREKHGRERAAELLSRLKKALGIDHIHRLMIEDFRIQGEKIQLHVRIKQEINGQEFTRSIELILLKINGRWSVESIDIR | 1.42
SEDDEKIERWLHIILRAFETGDERILQELMDPNTRMDINGVEIHGRERVTKELHRIRKELGADHIEVRLTDEKRVNGRLRLHTQLHFHQGNKLIIIESRILFEKYDGKWMIESMSEK | 1.05
SEDDEKLEQIIELLDKVMKTGDERAYNELMDPNTRYQVGDKEFHGMEWWSEIYSRHEKKLGIEKVEVDIENHHVQGDKVTVHGRVNINGREHEYRFVLTKVDGQWRLREENIK | 1.15
SEDDEKLKDFLRMLIEVILTGDEERFFELLDPHARLEYGDKEFHGREVIYHWFFNEFRRIKGLVFRNIHLREHDVVDGRLQIDLEVHIIFNGKTRSHDIHFVATKIDGRWILRTESIK | 2.33
SEDDEKSQEIMHRFIKYYETGDWKRLYELADPNARSYYNGKERHGMDVIRDLIEKVKNVKLHIRRIESDVQGDKINLHLDVEVDIDGQIMTLHDTVHAEKIDGRWRIRIIFLHVK | 1.36
SEDDEKVREAFELWARLVLTGDEEIIEKMVDPHMRIEIGDKELHGRDELRRWIREIRIRDIDVHDVRVQGDKAESDLKVRMDIDGVETRRHTHLIMHKFDGRWIIESIDVR | 1.36
SEDDELAHLFFELFLKLIQTGDEDKLLDLMDPNAKSEYNGVILHGREHKEHWRRRFKNIRVHYRHVEIHFQGNYLHIRIDGSLDINGQEIDSHVRLHTEKVNGKWIVRSMHFHYT | 1.25
SEDDELIKKYIKRWLHDLVTGDEDSLEELIDPNARLDINGKELIGREWVERVTKELRIEHINPRSVRSINGKVEIETEVHVNVNGVKIILDRHLDIHKVNGKWIVKEVRVK | 1.14
SEDDELSKHAFDMLRDSIHTGDEHLNNKLFDPHVRLYYGDKLLIGREHLTRLLFFWAKELRIELRVRHYESQGEKVDIHVELIMRVNGREQKHDVILYLEKVNGRWIMHSIEIR | 0.775
SEDDELVTRMFKVWLHDWITGNEEQIHRMVDPDYRLEIGDKDIHGMEASLHWLRKIKNIQFRFHLEHVDVVNGKAKSEGRYIEEFEGVKIDRDVELYLHIVDGRIKSMSIHKR | 1.29
SEDDEMLKLFFELVHRFHLTGDETNHLNNMDPHARMNAENWRRHGRHALEQLRTRFDHIDHVHLDHYETFDGRLILHVTVDGQFDGVRDRNTLHIVMKKINGRWIMEELRIQ | 1.23
SEDDEQAHRTIEIWLRASRTGNEEELERLADPHDKIEFNGREHHGREEFLKIMKHLRVHHMDVRDRTLIGDKINIDVILDLHFNGRRHIIELTTILVKINGRWFFKSWIFI | 1.21
SEDDERMERLTRILLEALETGDEDALRELIDPNARVDVNGVRDHGWKEVRKLLKELGVDHIKIHDHHIQGEKSRIDGEIHFNGKSERVTILWIMINGRVKFMSVKHT | 1.79
SEDDERMKKLLSDIWRLLMTGDEELWAKLADPNVRVDVNGRERHGREEVVKLLRELRHERRGRREEHHTVEDFRIYGDYSEVDYRYWVVFNGQREDVTMHIHIQVVNGRLKEIEIKMR | 1.51
SEDDERQRWIIEELVKTERTGDEHRRMELADPDYRLEIGDKEVHGMEEASRILHDELFNLGINHMHIKEWRVQGDKVHLEGLMVVGDKTHRVRIHYVIVNGRVKTLKWRID | 1.33
